B1: Kap3 (human) (natural protein, UniProt Q92845 1-792, looked up)
chain: MQGEDARYLKRKVKGGNIDVHPSEKALIVHYEVEATILGEMGDPMLGERKECQKIIRLKSLNANTDITSLARKVVEECKLIHPSKLNEVEQLLYYLQNRRDSLSGKEKKEKSSKPKDPPPFEGMEIDEVANINDMDEYIELLYEDIPDKVRGSALILQLARNPDNLEELLLNETALGALARVLREDWKQSVELATNIIYIFFCFSSFSQFHGLITHYKIGALCMNIIDHELKRHELWQEELSKKKKAVDEDPENQTLRKDYEKTFKKYQGLVVKQEQLLRVALYLLLNLAEDTRTELKMRNKNIVHMLVKALDRDNFELLILVVSFLKKLSIFMENKNDMVEMDIVEKLVKMIPCEHEDLLNITLRLLLNLSFDTGLRNKMVQVGLLPKLTALLGNDNYKQIAMCVLYHISMDDRFKSMFAYTDCIPQLMKMLFECSDERIDLELISFCINLAANKRNVQLICEGNGLKMLMKRALKFKDPLLMKMIRNISQHDGPTKNLFIDYVGDLAAQISNDEEEEFVIECLGTLANLTIPDLDWELVLKEYKLVPYLKDKLKPGAAEDDLVLEVVIMIGTVSMDDSCAALLAKSGIIPALIELLNAQQEDDEFVCQIIYVFYQMVFHQATRDVIIKETQAPAYLIDLMHDKNNEIRKVCDNTLDIIAEYDEEWAKKIQSEKFRWHNSQWLEMVESRQMDESEQYLYGDDRIEPYIHEGDILERPDLFYNSDGLIASEGAISPDFFNDYHLQNGDVVGQHSFPGSLGMDGFGQPVGILGRPATAYGFRPDEPYYYGYGS
notes: Kap3, human, synthesised gene; SNAPf labelled with SNAP-Cell TMR-Star in the TIRF colocalisation assay; No truncation is mentioned; probably the whole protein; source: Sf9 (baculovirus), purified (IgG Sepharose, TEV elution, SEC); not shown: ZZ, N-terminal, cleaved; SNAPf, N-terminal, kept
B2: Kif3B^ΔC156 (domain or fragment, human, UniProt O15066 1-591, looked up)
chain: MSKLKSSESVRVVVRCRPMNGKEKAASYDKVVDVDVKLGQVSVKNPKGTAHEMPKTFTFDAVYDWNAKQFELYDETFRPLVDSVLQGFNGTIFAYGQTGTGKTYTMEGIRGDPEKRGVIPNSFDHIFTHISRSQNQQYLVRASYLEIYQEEIRDLLSKDQTKRLELKERPDTGVYVKDLSSFVTKSVKEIEHVMNVGNQNRSVGATNMNEHSSRSHAIFVITIECSEVGLDGENHIRVGKLNLVDLAGSERQAKTGAQGERLKEATKINLSLSALGNVISALVDGKSTHIPYRDSKLTRLLQDSLGGNAKTVMVANVGPASYNVEETLTTLRYANRAKNIKNKPRVNEDPKDALLREFQEEIARLKAQLEKRSIGRRKRREKRREGGGSGGGGEEEEEEGEEGEEEGDDKDDYWREQQEKLEIEKRAIVEDHSLVAEEKMRLLKEKEKKMEDLRREKDAAEMLGAKIKAMESKLLVGGKNIVDHTNEQQKILEQKRQEIAEQKRREREIQQQMESRDEETLELKETYSSLQQEVDIKTKKLKKLFSKLQAVKAEIHDLQEEHIKERQELEQTQNELTRELKLKHLIIENFI
notes: Kif3B, human, 156 amino acids truncated from the C terminus (removes the Kif3B β-hairpin motif); also called Kif3B^Δ156; source: Sf9 (baculovirus), coexpressed with Kif3A^ΔC103, purified (IgG Sepharose, TEV elution, SEC); not shown: ZZ, N-terminal, cleaved
B3: Kif3B (human kinesin-2 motor subunit), full length (natural protein, UniProt O15066 1-747, looked up)
chain: MSKLKSSESVRVVVRCRPMNGKEKAASYDKVVDVDVKLGQVSVKNPKGTAHEMPKTFTFDAVYDWNAKQFELYDETFRPLVDSVLQGFNGTIFAYGQTGTGKTYTMEGIRGDPEKRGVIPNSFDHIFTHISRSQNQQYLVRASYLEIYQEEIRDLLSKDQTKRLELKERPDTGVYVKDLSSFVTKSVKEIEHVMNVGNQNRSVGATNMNEHSSRSHAIFVITIECSEVGLDGENHIRVGKLNLVDLAGSERQAKTGAQGERLKEATKINLSLSALGNVISALVDGKSTHIPYRDSKLTRLLQDSLGGNAKTVMVANVGPASYNVEETLTTLRYANRAKNIKNKPRVNEDPKDALLREFQEEIARLKAQLEKRSIGRRKRREKRREGGGSGGGGEEEEEEGEEGEEEGDDKDDYWREQQEKLEIEKRAIVEDHSLVAEEKMRLLKEKEKKMEDLRREKDAAEMLGAKIKAMESKLLVGGKNIVDHTNEQQKILEQKRQEIAEQKRREREIQQQMESRDEETLELKETYSSLQQEVDIKTKKLKKLFSKLQAVKAEIHDLQEEHIKERQELEQTQNELTRELKLKHLIIENFIPLEEKSKIMNRAFFDEEEDHWKLHPITRLENQQMMKRPVSAVGYKRPLSQHARMSMMIRPEARYRAENIVLLELDMPSRTTRDYEGPAIAPKVQAALDAALQDEDEIQVDASSFESTANKKSKARPKSGRKSGSSSSSSGTPASQLYPQSRGLVPK
notes: Kif3B, human, synthesised gene, full-length subunit; source: Sf9 (baculovirus), coexpressed with Kif3A, purified (IgG Sepharose, TEV elution, SEC); not shown: ZZ, N-terminal, cleaved

Assays:
Details in all cases: both partners purified
[1] = biological target: T1, Kif3A–Kif3B^ΔC114 heterodimer (ΔInt2+3) (human, UniProt Q9Y496 1-699; O15066 1-633); test: single-molecule TIRF colocalisation; Alexa-Fluor-647-labelled Kif3AB/C constructs on surface-attached microtubules (1 mM AMPPNP in Fig. 4c), TMR-labelled Kap3 at 1 nM, buffer B, 25 °C; fraction of Kif3A spots with Kap3 signal
T1 construct: Kif3A, human, synthesised gene, full-length subunit; Kif3B, human, 114 amino acids truncated from the C terminus; source: Sf9 (baculovirus), coexpressed, purified (IgG Sepharose, TEV elution, SEC); not shown: SNAPf, C-terminal, kept; ZZ, N-terminal, cleaved

[2] = biological target: T2, Kif3AB heterodimer, full length (human, UniProt Q9Y496 1-699; O15066 1-747); test: as above
T2 construct: Kif3A, human, synthesised gene, full-length subunit; Kif3B, human, synthesised gene, full-length subunit; SNAPf on Kif3A labelled with Alexa Fluor 647 in the TIRF assays; A Kif3A construct without SNAPf was also cloned; also called Kif3A–Kif3B; Kif3AB^WT; source: Sf9 (baculovirus), coexpressed, purified (IgG Sepharose, TEV elution, SEC); not shown: SNAPf, C-terminal, kept; ZZ, N-terminal, cleaved

[3] = biological target: T3, Kif3A^ΔC89–Kif3B heterodimer (ΔInt1) (human, UniProt Q9Y496 1-610; O15066 1-747); test: as above
T3 construct: Kif3A, human, 89 amino acids truncated from the C terminus (within the β-hairpin motif); Kif3B, human, synthesised gene, full-length subunit; also called Kif3A^Δ89B; source: Sf9 (baculovirus), coexpressed, purified (IgG Sepharose, TEV elution, SEC); not shown: SNAPf, C-terminal, kept; ZZ, N-terminal, cleaved

[4] = biological target: T4, Kif3A–Kif3B^ΔC90 heterodimer (ΔInt3) (human, UniProt Q9Y496 1-699; O15066 1-657); test: as above
T4 construct: Kif3A, human, synthesised gene, full-length subunit; Kif3B, human, 90 amino acids truncated from the C terminus; source: Sf9 (baculovirus), coexpressed, purified (IgG Sepharose, TEV elution, SEC); not shown: SNAPf, C-terminal, kept; ZZ, N-terminal, cleaved

[5] = biological target: T5, Kif3A^ΔC103 (human, UniProt Q9Y496 1-596); test: SEC; motor subunits coexpressed in Sf9, purified through the ZZ tag of Kif3B/C on IgG Sepharose, TEV elution, Superose 6 Increase 3.2/300 in buffer A (50 mM Tris-HCl pH 7.5, 150 mM K-acetate, 2 mM Mg-acetate, 5% glycerol, 1 mM DTT, 0.2 mM Mg-ATP); SDS-PAGE of peak fraction
T5 construct: Kif3A, human, 103 amino acids truncated from the C terminus; also called Kif3A^Δ103; source: Sf9 (baculovirus), coexpressed with Kif3B constructs, purified (IgG Sepharose, TEV elution, SEC); not shown: SNAPf, C-terminal, kept

[6] = biological target: B1; test: single-molecule TIRF colocalisation; Alexa-Fluor-647-labelled Kif3AB/C constructs on surface-attached microtubules (1 mM AMPPNP in Fig. 4c), TMR-labelled Kap3 at 1 nM, buffer B, 25 °C; fraction of Kif3A spots with Kap3 signal

T3 sequence (Q9Y496 1-610, stated change not applied, one chain of several): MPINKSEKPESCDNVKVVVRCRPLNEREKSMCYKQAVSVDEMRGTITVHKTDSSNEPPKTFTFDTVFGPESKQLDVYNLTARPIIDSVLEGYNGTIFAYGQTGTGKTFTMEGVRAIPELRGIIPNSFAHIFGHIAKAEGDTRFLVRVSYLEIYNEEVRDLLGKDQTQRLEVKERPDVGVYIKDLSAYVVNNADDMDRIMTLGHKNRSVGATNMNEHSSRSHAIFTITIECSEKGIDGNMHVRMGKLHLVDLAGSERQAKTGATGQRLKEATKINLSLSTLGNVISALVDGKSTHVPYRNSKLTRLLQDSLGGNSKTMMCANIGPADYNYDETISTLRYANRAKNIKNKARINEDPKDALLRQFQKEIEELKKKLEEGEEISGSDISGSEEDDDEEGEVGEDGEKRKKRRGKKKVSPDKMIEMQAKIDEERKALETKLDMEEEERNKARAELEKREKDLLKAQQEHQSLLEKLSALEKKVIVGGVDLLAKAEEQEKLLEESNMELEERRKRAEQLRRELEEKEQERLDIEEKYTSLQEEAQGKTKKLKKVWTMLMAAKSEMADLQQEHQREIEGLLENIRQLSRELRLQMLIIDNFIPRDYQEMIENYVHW
T2 sequence (Q9Y496 whole entry, one chain of several): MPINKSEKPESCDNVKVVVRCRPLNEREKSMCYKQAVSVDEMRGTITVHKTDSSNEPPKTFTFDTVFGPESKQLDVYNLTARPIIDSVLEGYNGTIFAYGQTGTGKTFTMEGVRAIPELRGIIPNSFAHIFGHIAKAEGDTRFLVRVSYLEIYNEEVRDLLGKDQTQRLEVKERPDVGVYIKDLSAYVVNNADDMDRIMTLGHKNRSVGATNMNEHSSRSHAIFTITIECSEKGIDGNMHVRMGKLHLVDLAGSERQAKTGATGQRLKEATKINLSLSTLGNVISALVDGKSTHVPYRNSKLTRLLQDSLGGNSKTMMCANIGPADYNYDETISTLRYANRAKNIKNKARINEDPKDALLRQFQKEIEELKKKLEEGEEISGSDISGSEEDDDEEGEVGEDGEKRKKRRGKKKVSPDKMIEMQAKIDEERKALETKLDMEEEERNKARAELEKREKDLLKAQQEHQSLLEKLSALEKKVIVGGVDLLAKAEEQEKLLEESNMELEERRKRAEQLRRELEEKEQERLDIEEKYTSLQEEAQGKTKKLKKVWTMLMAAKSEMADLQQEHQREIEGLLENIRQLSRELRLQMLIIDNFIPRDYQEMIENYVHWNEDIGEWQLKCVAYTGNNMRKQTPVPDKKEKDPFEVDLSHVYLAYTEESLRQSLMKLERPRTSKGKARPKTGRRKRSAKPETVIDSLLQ
T4 sequence (Q9Y496 whole entry, stated change not applied, the tested form may be a part, one chain of several): as the sequence (Q9Y496 whole entry, one chain of several) above
T1 sequence (Q9Y496 whole entry, stated change not applied, the tested form may be a part, one chain of several): as the sequence (Q9Y496 whole entry, one chain of several) above
T5 sequence (Q9Y496 1-596, stated change not applied): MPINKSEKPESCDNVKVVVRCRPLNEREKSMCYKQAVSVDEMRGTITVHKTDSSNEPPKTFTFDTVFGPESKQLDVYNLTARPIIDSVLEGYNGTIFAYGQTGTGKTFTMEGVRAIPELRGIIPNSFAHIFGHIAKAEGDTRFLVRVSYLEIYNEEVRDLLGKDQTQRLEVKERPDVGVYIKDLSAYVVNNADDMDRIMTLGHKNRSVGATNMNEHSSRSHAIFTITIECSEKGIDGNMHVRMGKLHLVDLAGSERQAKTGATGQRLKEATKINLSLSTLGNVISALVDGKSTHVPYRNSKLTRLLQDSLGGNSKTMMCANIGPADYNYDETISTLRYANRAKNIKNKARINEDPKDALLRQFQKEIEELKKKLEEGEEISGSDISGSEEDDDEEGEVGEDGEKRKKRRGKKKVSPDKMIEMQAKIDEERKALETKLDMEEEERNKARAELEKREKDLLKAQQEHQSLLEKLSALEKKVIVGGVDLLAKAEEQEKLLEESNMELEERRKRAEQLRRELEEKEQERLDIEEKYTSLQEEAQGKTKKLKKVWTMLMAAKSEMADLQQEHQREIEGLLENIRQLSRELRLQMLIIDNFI

## B1
[1]
  percent of Kif3AB molecules with colocalised Kap3: 50%
[2]
  percent of Kif3AB molecules with colocalised Kap3: 82%
[3]
  percent of Kif3AB molecules with colocalised Kap3: 26%
[4]
  percent of Kif3AB molecules with colocalised Kap3: 62%

## B2
[5]
  binding result: binds

## B3
[6]
  binding result: binds

Source: PMC12527917, “Regulation of kinesin-2 motility by its β-hairpin motif” (Nature Structural & Molecular Biology, 2025)
